Data reported in patent US20030068675, “Position dependent recognition of GNN nucleotide triplets by zinc fingers” (published 2003).
Positions count from the first letter of the chain named.

Legend:
Experiment in all cases: EMSA
Conditions in all cases: tags: MBP fusion
ZFP SBS#567 = target: T1, ZFP SBS#567 (synthetic)
T1 chain: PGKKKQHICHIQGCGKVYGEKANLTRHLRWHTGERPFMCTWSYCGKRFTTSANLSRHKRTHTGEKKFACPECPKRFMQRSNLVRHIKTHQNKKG
Outline: (§1)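 Purified ZFP was titrated against labeled double-stranded target (1 nM or lower, at least 10-fold below expected Kd) carrying the natural binding site with flanks. Binding buffer was 10 mM Tris pH 7.5, 100 mM KCl, 1 mM MgCl2, 0.1 mM ZnCl2, 5 mM DTT, 10% glycerol, 0.02% BSA, with equilibration for at least 45 min. Bound and free target were separated on a 10% polyacrylamide gel.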

ZFP SBS#428 = ZFP SBS#428 (synthetic)
Chain of ZFP SBS#428 (synthetic) (chain, as listed by the source): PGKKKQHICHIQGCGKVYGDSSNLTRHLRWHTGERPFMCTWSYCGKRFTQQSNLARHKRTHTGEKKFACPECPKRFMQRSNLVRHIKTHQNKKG
Outline: as §1

ZFP SBS#429 = ZFP SBS#429 (synthetic)
Chain of ZFP SBS#429 (synthetic) (chain, as listed by the source): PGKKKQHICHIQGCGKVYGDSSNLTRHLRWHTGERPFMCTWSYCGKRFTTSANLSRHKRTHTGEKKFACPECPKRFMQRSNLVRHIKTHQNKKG
Outline: as §1

ZFP SBS#762 = ZFP SBS#762 (synthetic, UniProt P08047)
Chain of ZFP SBS#762 (P08047 other isoform, or with tags, fused parts or gaps): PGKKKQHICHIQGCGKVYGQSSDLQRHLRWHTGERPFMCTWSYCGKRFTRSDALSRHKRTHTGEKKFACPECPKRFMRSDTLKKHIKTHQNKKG
Outline: as §1

ZFP SBS#735 = target: T2, ZFP SBS#735 (synthetic)
T2 chain: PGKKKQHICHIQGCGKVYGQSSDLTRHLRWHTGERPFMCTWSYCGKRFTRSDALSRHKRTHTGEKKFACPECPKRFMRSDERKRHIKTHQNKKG
Outline: as §1

ZFP SBS#761 = target: T3, ZFP SBS#761 (synthetic)
T3 chain: T2 chain with T25Q
Outline: as §1

ZFP SBS#727 = ZFP SBS#727 (synthetic, UniProt P08047)
Chain of ZFP SBS#727 (P08047 other isoform, or with tags, fused parts or gaps): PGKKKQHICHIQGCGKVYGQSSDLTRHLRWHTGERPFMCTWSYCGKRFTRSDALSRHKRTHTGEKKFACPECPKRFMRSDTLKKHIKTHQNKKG
Outline: as §1

ZFP SBS#704 = ZFP SBS#704 (synthetic)
Chain of ZFP SBS#704 (synthetic) (chain, as listed by the source): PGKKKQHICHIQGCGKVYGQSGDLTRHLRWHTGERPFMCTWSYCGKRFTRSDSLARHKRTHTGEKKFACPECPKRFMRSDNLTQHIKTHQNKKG
Outline: as §1

ZFP SBS#740 = target: T4, ZFP SBS#740 (synthetic)
T4 chain: T2 chain with S22G, D23S, S55A, E81N, K83T, R84A
Outline: as §1

ZFP SBS#607 = ZFP SBS#607 (synthetic)
Outline: as §1

ZFP SBS#728 = target: T5, ZFP SBS#728 (synthetic)
T5 chain: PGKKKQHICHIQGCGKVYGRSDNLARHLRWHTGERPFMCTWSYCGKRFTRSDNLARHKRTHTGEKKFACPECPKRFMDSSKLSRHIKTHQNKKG
Outline: as §1

ZFP SBS#751 = ZFP SBS#751 (synthetic)
Chain of ZFP SBS#751 (synthetic) (chain, as listed by the source): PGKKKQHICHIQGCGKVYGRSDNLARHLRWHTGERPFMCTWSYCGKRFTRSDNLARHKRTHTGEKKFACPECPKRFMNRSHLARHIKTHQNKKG
Outline: as §1

ZFP SBS#713 = target: T6, ZFP SBS#713 (synthetic)
T6 chain: T5 chain with D78M, S80H, K81H
Outline: as §1

ZFP SBS#712 = target: T7, ZFP SBS#712 (synthetic)
T7 chain: T5 chain with D78M, S80D, K81H
Outline: as §1

ZFP SBS#736 = target: T8, ZFP SBS#736 (synthetic, UniProt P08047)
T8 chain: T5 chain with N23H, N53A, A55S, D78R, S80D, K81N
Outline: as §1

ZFP SBS#752 = target: T9, ZFP SBS#752 (synthetic, UniProt P08047)
T9 chain: T2 chain with Q20R, S22H, D23H, T25A, E81N, R82L, K83S
Outline: as §1

ZFP SBS#741 = ZFP SBS#741 (synthetic)
Chain of ZFP SBS#741 (synthetic) (chain, as listed by the source): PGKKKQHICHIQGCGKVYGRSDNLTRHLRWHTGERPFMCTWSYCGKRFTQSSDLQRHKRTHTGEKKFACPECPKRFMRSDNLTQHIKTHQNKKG
Outline: as §1

ZFP SBS#760 = target: T10, ZFP SBS#760 (synthetic)
T10 chain: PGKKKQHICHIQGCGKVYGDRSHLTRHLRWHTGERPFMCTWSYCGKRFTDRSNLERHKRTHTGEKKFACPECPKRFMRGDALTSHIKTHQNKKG
Outline: as §1

ZFP SBS#759 = target: T11, ZFP SBS#759 (synthetic)
T11 chain: T10 chain with R21S, S22G, R51S, E55T
Outline: as §1

ZFP SBS#749 = target: T12, ZFP SBS#749 (synthetic)
T12 chain: T10 chain with R51S, E55T
Outline: as §1

ZFP SBS#748 = target: T13, ZFP SBS#748 (synthetic)
T13 chain: T10 chain with R21S, S22G
Outline: as §1

ZFP SBS#779 = ZFP SBS#779 (synthetic)
Outline: as §1

ZFP SBS#780 = ZFP SBS#780 (synthetic)
Chain of ZFP SBS#780 (synthetic) (chain, as listed by the source): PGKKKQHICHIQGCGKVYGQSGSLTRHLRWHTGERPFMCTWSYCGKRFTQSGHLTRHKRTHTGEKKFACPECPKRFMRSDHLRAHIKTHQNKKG
Outline: as §1

ZFP SBS#733 = ZFP SBS#733 (synthetic)
Outline: as §1

ZFP SBS#732 = ZFP SBS#732 (synthetic)
Chain of ZFP SBS#732 (synthetic) (chain, as listed by the source): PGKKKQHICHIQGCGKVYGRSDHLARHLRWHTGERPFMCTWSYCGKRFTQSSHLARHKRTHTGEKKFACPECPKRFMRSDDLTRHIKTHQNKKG
Outline: as §1

ZFP SBS#747 = target: T14, ZFP SBS#747 (synthetic)
T14 chain: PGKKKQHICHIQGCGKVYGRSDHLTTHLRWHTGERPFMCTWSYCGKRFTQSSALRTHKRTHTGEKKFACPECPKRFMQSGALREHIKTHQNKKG
Outline: as §1

ZFP SBS#734 = ZFP SBS#734 (synthetic)
Chain of ZFP SBS#734 (synthetic) (chain, as listed by the source): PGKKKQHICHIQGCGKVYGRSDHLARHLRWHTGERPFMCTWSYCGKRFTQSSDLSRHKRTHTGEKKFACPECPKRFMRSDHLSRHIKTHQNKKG
Outline: as §1

ZFP SBS#777 = target: T15, ZFP SBS#777 (synthetic)
T15 chain: T10 chain with D20R, R21S, S22D, T25A, E55T, G79S, T83S, S84A
Outline: as §1

ZFP SBS#776 = target: T16, ZFP SBS#776 (synthetic)
T16 chain: T10 chain with D20R, R21S, S22D, T25A, G79S, A81S, T83N, S84Q
Outline: as §1

ZFP SBS#430 = target: T17, ZFP SBS#430 (synthetic)
T17 chain: T1 chain with T50D, A52S, S55T, R79Q, V83A
Outline: as §1

ZFP SBS#568 = target: T18, ZFP SBS#568 (synthetic)
T18 chain: T1 chain with T50D, A52S, S55T, Q78T, R79S, S80A, V83S
Outline: as §1

ZFP SBS#757 = target: T19, ZFP SBS#757 (synthetic, UniProt P08047)
T19 chain: T2 chain with T25R, A53E, S55Q, E81H, R82L, K83R, R84E
Outline: as §1

ZFP SBS#758 = target: T20, ZFP SBS#758 (synthetic, UniProt P08047)
T20 chain: T2 chain with T25R, S51A, A53T, S55R, E81H, R82L, K83R, R84E
Outline: as §1

ZFP SBS#746 = ZFP SBS#746 (synthetic)
Chain of ZFP SBS#746 (synthetic) (chain, as listed by the source): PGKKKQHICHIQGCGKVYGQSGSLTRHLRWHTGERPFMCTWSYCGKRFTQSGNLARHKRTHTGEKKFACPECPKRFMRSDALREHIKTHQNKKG
Outline: as §1

ZFP SBS#744 = target: T21, ZFP SBS#744 (synthetic)
T21 chain: T2 chain with S21R, D23A, T25A, R26S, A53H, E81T, R82L, R84Q
Outline: as §1

ZFP SBS#742 = target: T22, ZFP SBS#742 (synthetic)
T22 chain: T2 chain with S21R, S22G, D23A, T25A, R26S, A53H, E81T, R82L, R84Q
Outline: as §1

ZFP SBS#745 = target: T23, ZFP SBS#745 (synthetic)
T23 chain: T2 chain with S21R, D23A, T25A, R26S, A53H, E81T, R82L, K83T, R84Q
Outline: as §1

ZFP SBS#743 = target: T24, ZFP SBS#743 (synthetic)
T24 chain: T2 chain with S21R, S22G, D23A, T25A, R26S, A53H, E81T, R82L, K83T, R84Q
Outline: as §1

B1: GAAGATGAC (dsDNA)
DNA 1: GAAGATGAC
DNA 2: GTCATCTTC
ZFP SBS#567
  Kd: 47.5 nM
ZFP SBS#428
  Kd: 120 nM
ZFP SBS#429
  Kd: 50 nM

B2: GCGGTGGCTC (dsDNA)
DNA 1: GCGGTGGCTC
DNA 2: GAGCCACCGC
ZFP SBS#762
  Kd: 18 nM
ZFP SBS#735
  Kd: 0.05 nM
ZFP SBS#761
  Kd: 6 nM
ZFP SBS#727
  Kd: 0.1 nM

B3: AAGGTGGCAG (dsDNA)
DNA 1: AAGGTGGCAG
DNA 2: CTGCCACCTT
ZFP SBS#704
  Kd: 5 nM
ZFP SBS#740
  Kd: 12.5 nM
ZFP SBS#607
  Kd: 6.5 nM

B4: GGTGAGGAGT (dsDNA)
DNA 1: GGTGAGGAGT
DNA 2: ACTCCTCACC
ZFP SBS#728
  Kd: 15 nM
ZFP SBS#751
  Kd: 7 nM
ZFP SBS#713
  Kd: 0.15 nM
ZFP SBS#712
  Kd: 9.5 nM

B5: GAGGTGGGGA (dsDNA)
DNA 1: GAGGTGGGGA
DNA 2: TCCCCACCTC
ZFP SBS#736
  Kd: 0.47 nM
ZFP SBS#752
  Kd: 31 nM

B6: AAGGCTGAGA (dsDNA)
DNA 1: AAGGCTGAGA
DNA 2: TCTCAGCCTT
ZFP SBS#741
  Kd: 15 nM

B7: TTGGACGGCG (dsDNA)
DNA 1: TTGGACGGCG
DNA 2: CGCCGTCCAA
ZFP SBS#760
  Kd: 148 nM
ZFP SBS#759
  Kd: 37 nM
ZFP SBS#749
  Kd: 11.3 nM
ZFP SBS#748
  Kd: 112 nM

B8: CGGGGAGCAG (dsDNA)
DNA 1: CGGGGAGCAG
DNA 2: CTGCTCCCCG
ZFP SBS#779
  Kd: 0.5 nM
ZFP SBS#780
  Kd: 0.5 nM

B9: GCGGGTGGGG (dsDNA)
DNA 1: GCGGGTGGGG
DNA 2: CCCCACCCGC
ZFP SBS#733
  Kd: 0.32 nM
ZFP SBS#732
  Kd: 22.5 nM

B10: CTATTTTGGG (dsDNA)
DNA 1: CTATTTTGGG
DNA 2: CCCAAAATAG
ZFP SBS#747
  Kd: 2000 nM

B11: GGGGCTGGGT (dsDNA)
DNA 1: GGGGCTGGGT
DNA 2: ACCCAGCCCC
ZFP SBS#734
  Kd: 0.25 nM

B12: ATGGACGGGT (dsDNA)
DNA 1: ATGGACGGGT
DNA 2: ACCCGTCCAT
ZFP SBS#777
  Kd: 3.4 nM
ZFP SBS#776
  Kd: 0.4 nM

B13: GATGACGAC (dsDNA)
DNA 1: GATGACGAC
DNA 2: GTCGTCATC
ZFP SBS#430
  Kd: 250 nM
ZFP SBS#568
  Kd: 300 nM

B14: CGGGCGGCTG (dsDNA)
DNA 1: CGGGCGGCTG
DNA 2: CAGCCGCCCG
ZFP SBS#757
  Kd: 14.5 nM
ZFP SBS#758
  Kd: 16.5 nM

B15: CTGGAAGCAT (dsDNA)
DNA 1: CTGGAAGCAT
DNA 2: ATGCTTCCAG
ZFP SBS#746
  Kd: 2.07 nM

B16: ACGGGGTTAT (dsDNA)
DNA 1: ACGGGGTTAT
DNA 2: ATAACCCCGT
ZFP SBS#744
  Kd: 8.33 nM
ZFP SBS#742
  Kd: 29 nM
ZFP SBS#745
  Kd: 12.5 nM
ZFP SBS#743
  Kd: 10 nM
